Here are results for one molecule from article PMC10509710, “Development and validation of a purification system for functional full-length human SR-B1 and CD36” (The Journal of Biological Chemistry, 2023).

The target in this experiment is oxidized low-density lipoprotein (oxLDL) (oxidized with CuSO4 (residues not told)). The experiment is described as follows: MST; Cy5-labeled receptor (RED-NHS, lysines) at constant 20 nM, ligand in a 16-point 1:1 dilution series; exchange buffer (50 mM Hepes pH 7.5, 150 mM NaCl, 0.025% LMNG, 0.005% CHS); 25 °C, 40% MST power; apparent Kd, one-site specific binding; molar values from average molecular weights (267.5 kDa HDL, 3500 kDa oxLDL). The settings on record: both partners purified.

B1: human full-length cluster of differentiation 36 (CD36), glycosylated (receptor, UniProt P16671 1-472, looked up)
chain: MGCDRNCGLIAGAVIGAVLAVFGGILMPVGDLLIQKTIKKQVVLEEGTIAFKNWVKTGTEVYRQFWIFDVQNPQEVMMNSSNIQVKQRGPYTYRVRFLAKENVTQDAEDNTVSFLQPNGAIFEPSLSVGTEADNFTVLNLAVAAASHIYQNQFVQMILNSLINKSKSSMFQVRTLRELLWGYRDPFLSLVPYPVTTTVGLFYPYNNTADGVYKVFNGKDNISKVAIIDTYKGKRNLSYWESHCDMINGTDAASFPPFVEKSQVLQFFSSDICRSIYAVFESDVNLKGIPVYRFVLPSKAFASPVENPDNYCFCTEKIISKNCTSYGVLDISKCKEGRPVYISLPHFLYASPDVSEPIDGLNPNEEEHRTYLDIEPITGFTLQFAKRLQVNLLVKPSEKIQVLKNLKRNYIVPILWLNETGTIGDEKANMFRSQVTGKINLLGLIEMILLSVGVVMFVAFMISYCACRSKTIK
modifications: glycosylated (Sf9); labeled with Cy5 via lysine residues in the MST
notes: CD36, human, full length, 472 amino acids as printed; the methods print a C-terminal hemaglutinin A secretion signal and an N-terminal PreScission cut site, His10 and FLAG; In detergent micelles when purified; also called glycosylated CD36; source: Sf9 cells, baculovirus (MOI 5): on cells and in lysate; also purified (LMNG/CHS solubilisation, TALON cobalt resin, desalting)
B1: the Kd amounted to 343 ± 286 nM.
